From paper PMC7441159, “The metal binding site composition of the cation diffusion facilitator protein MamM cytoplasmic domain impacts its metal responsivity” (Scientific Reports, 2020)

B1: MamM CTD H264E (domain or fragment, Magnetospirillum gryphiswaldense MSR-1, UniProt V6F235 215-318, looked up)
chain: EAVQNRIVEAAERVPGVRGVIHLRARYVGQDIWADMIIGVDPENTVEQAEEICEAVQAAVCGKIRRIESLHVSAEAREIGDTTKPSFSDQPLSFDEVMLSKVDN
notes: MamM cytoplasmic C-terminal domain (CTD), Magnetospirillum gryphiswaldense MSR-1, UniProt Q6NE57 residues 215-318; A thrombin site follows the His tag
B2: MamM CTD E289D (domain or fragment, Magnetospirillum gryphiswaldense MSR-1, UniProt V6F235 215-318, looked up)
chain: EAVQNRIVEAAERVPGVRGVIHLRARYVGQDIWADMIIGVDPENTVEQAHEICEAVQAAVCGKIRRIESLHVSADAREIGDTTKPSFSDQPLSFDEVMLSKVDN
notes: as for B1
B3: MamM CTD D249N (domain or fragment, Magnetospirillum gryphiswaldense MSR-1, UniProt V6F235 215-318, looked up)
chain: EAVQNRIVEAAERVPGVRGVIHLRARYVGQDIWANMIIGVDPENTVEQAHEICEAVQAAVCGKIRRIESLHVSAEAREIGDTTKPSFSDQPLSFDEVMLSKVDN
notes: as for B1
B4: MamM CTD D249E (domain or fragment, Magnetospirillum gryphiswaldense MSR-1, UniProt V6F235 215-318, looked up)
chain: EAVQNRIVEAAERVPGVRGVIHLRARYVGQDIWAEMIIGVDPENTVEQAHEICEAVQAAVCGKIRRIESLHVSAEAREIGDTTKPSFSDQPLSFDEVMLSKVDN
notes: as for B1
B5: MamM CTD E289H (domain or fragment, Magnetospirillum gryphiswaldense MSR-1, UniProt V6F235 215-318, looked up)
chain: EAVQNRIVEAAERVPGVRGVIHLRARYVGQDIWADMIIGVDPENTVEQAHEICEAVQAAVCGKIRRIESLHVSAHAREIGDTTKPSFSDQPLSFDEVMLSKVDN
notes: as for B1
B6: MamM CTD H285D (domain or fragment, Magnetospirillum gryphiswaldense MSR-1, UniProt V6F235 215-318, looked up)
chain: EAVQNRIVEAAERVPGVRGVIHLRARYVGQDIWADMIIGVDPENTVEQAHEICEAVQAAVCGKIRRIESLDVSAEAREIGDTTKPSFSDQPLSFDEVMLSKVDN
notes: as for B1
B7: MamM CTD D249H-H285D (domain or fragment, Magnetospirillum gryphiswaldense MSR-1, UniProt V6F235 215-318, looked up)
chain: EAVQNRIVEAAERVPGVRGVIHLRARYVGQDIWAHMIIGVDPENTVEQAHEICEAVQAAVCGKIRRIESLDVSAEAREIGDTTKPSFSDQPLSFDEVMLSKVDN
notes: as for B1
B8: MamM CTD H264E-E289H (domain or fragment, Magnetospirillum gryphiswaldense MSR-1, UniProt V6F235 215-318, looked up)
chain: EAVQNRIVEAAERVPGVRGVIHLRARYVGQDIWADMIIGVDPENTVEQAEEICEAVQAAVCGKIRRIESLHVSAHAREIGDTTKPSFSDQPLSFDEVMLSKVDN
notes: MamM cytoplasmic C-terminal domain (CTD), Magnetospirillum gryphiswaldense MSR-1, UniProt Q6NE57 residues 215-318; A thrombin site follows the His tag; also called E289H-H264E
B9: MamM CTD D249H (domain or fragment, Magnetospirillum gryphiswaldense MSR-1, UniProt V6F235 215-318, looked up)
chain: EAVQNRIVEAAERVPGVRGVIHLRARYVGQDIWAHMIIGVDPENTVEQAHEICEAVQAAVCGKIRRIESLHVSAEAREIGDTTKPSFSDQPLSFDEVMLSKVDN
notes: as for B1

Molecular target: the molecule itself
Test: crystal structure; homodimer seen in the crystal; vapor diffusion at 293 K, protein at 20 mg/mL in 10 mM Tris pH 8.0, 150 mM NaCl, 5 mM β-mercaptoethanol and 3.375 mM metal solution (ZnCl2, CdCl2, MnCl2, NiCl2 or CuSO4)

Does B1 bind?
Result: binds

Does B2 bind?
Result: binds

Does B3 bind?
Result: binds

Does B4 bind?
Result: binds

Does B5 bind?
Result: binds

Does B6 bind?
Result: binds

Does B7 bind?
Result: binds

Does B8 bind?
Result: binds

Does B9 bind?
Result: binds
